From patent publication US20140178329A1 (INSTITUCIO CATALANA DE RECERCA I ESTUDIS AVANCATS ICREA, published 2014) come the findings set out here.

B1: FLAG-tagged wild-type soluble APRIL (amino acid 105 to 250) (ligand)
chain: AVLTQKQKKQHSVLHLVPINATSKDDSDVTEVMWQPALRRGRGLQAQGYGVRIQDAGVYLLYSQVLFQDVTFTMGQVVSREGQGRQETLFRCIRSMPSHPDRAYNSCYSAGVFHLHQGDILSVIIPRARAKLNLSPHGTFLGFVKL
notes: Used as conditioned medium of transfected 293T cells, not purified; also called WT; WT APRIL; not shown: FLAG tag
B2: mouse BCMA-Fc (R&D Systems) (Fc fusion, UniProt O88472 2-49, looked up)
chain: AQQCFHSEYFDSLLHACKPCHLRCSNPPATCQPYCDPSVTSSVKGTYT
notes: Bought; also called mBCMA-Fc; murine BCMA-Fc; not shown: Fc portion of human IgG1
B15: mouse TACI-Fc (R&D Systems) (Fc fusion, UniProt Q9ET35 5-129, looked up)
chain: FCPKDQYWDSSRKSCVSCALTCSQRSQRTCTDFCKFINCRKEQGRYYDHLLGACVSCDSTCTQHPQQCAHFCEKRPRSQANLQPELGRPQAGEVEVRSDNSGRHQGSEHGPGLRLSSDQLTLYCT
notes: Bought; also called mTACI-Fc; murine TACI-Fc; not shown: Fc portion of human IgG1

In test [1] the target is T1, human TACI-Fc (human, UniProt O14836 2-160, limits assumed).
T1 construct: Generated in-house; not shown: Fc portion of human IgG1
T1 sequence (looked up): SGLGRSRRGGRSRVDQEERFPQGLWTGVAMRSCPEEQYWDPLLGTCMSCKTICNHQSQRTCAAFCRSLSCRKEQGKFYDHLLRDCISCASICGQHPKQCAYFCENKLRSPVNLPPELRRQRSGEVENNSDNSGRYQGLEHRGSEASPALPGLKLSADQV
Kind of test: SPR (Biacore 2000), FLAG-APRIL captured by anti-FLAG M2, receptor-Fc injected, single cycle kinetics, 1:1 fit. The procedure:
(§1) FIG. 10: Surface Plasmon Resonance sensorgrams to illustrate binding of TACI-Fc and BCMA-Fc to WT and R206E-APRIL. Sensorgrams of human (Panel A) and mouse (Panel B) receptors binding to WT and R206E-APRIL. Stepwise increments in the curves represent sequential injections of receptor at the following concentrations: […]. In some cases, no value for affinity was calculated due to a low binding response or high drift.
(§2) In order to further assess the binding properties of the mutants and to measure apparent affinities and kinetics of receptor binding, a Surface Plasmon Resonance based receptor binding assay was performed on a Biacore 2000 (GE Healthcare, Diegem, Belgium). Anti-FLAG-M2 monoclonal antibody (Sigma-Aldrich) was diluted at a concentration of 5 μg/ml in 10 mM sodium acetate pH 4.5 and covalently immobilized (approx 1500 RU) to a CM-5 sensor chip (GE Healthcare), using standard amine coupling chemistry according to manufacturer's guidelines (Amine coupling kit, GE Healthcare). The different FLAG-APRIL variants in the form of tissue culture supernatants were captured onto the chip via the FLAG-tag at 10 μl/minute for five minutes, giving capture levels ranging from 159 to 207 RU. As a reference lane, one of the flow cells was left free of soluble FLAG-APRIL, to control for any background binding. BCMA- or TACI-Fc were then injected for three minutes over all four flow cells at 30 μl/minutes at increasing concentrations (ranging from 1-50 nM) using the single cycle kinetics method at 25° C. Dissociation was monitored for five minutes. The resulting curves were fitted using a 1:1 Langmuir model using BIAevaluation software 4.1. For each combination of FLAG-APRIL and BCMA- or TACI-Fc, the apparent kₐ, kd and KD were calculated from a global fit of binding curves from at least three separate experiments. Non-specific binding in the reference cell was subtracted before curve fitting. Regeneration of the anti-FLAG antibody surface was carried out with a 10-minute injection at 30 μl/minute of a mixture of ⅓ volume of TBS pH 11.5, ⅓ volume of Ionic solution and ⅓ volume of water. The Ionic solution was comprised of KSCN (0.46 M), MgCl₂ (1.83 M), urea (0.92 M) and guanidine-HCl (1.83 M).
On the technique in general: In SPR one partner is held on a chip, and binding of the other changes the refractive index at the surface.

For test [2], the target named is B1. The test is described as above. The procedure: as §1, §2
The target in test [3] is B2. Kind of test: receptor-binding ELISA, mouse BCMA-Fc coated, dilution series of conditioned medium, anti-FLAG-HRP, OD 405 nm [TACI selective, Ms BCMA-Fc coated]. The procedure:
(§3) The relative binding of the variants to either BCMA or TACI, was tested using a binding ELISA. The following proteins were used: human BCMA-Fc, human TACI-Fc (both generated in-house), mouse BCMA-Fc (R&D Systems, Abingdon, UK), mouse TACI-Fc (R&D Systems); in all cases the Fc portion is from human IgG1. BCMA-Fc and TACI-Fc were coated on 96-well Nunc Maxisorp plates (Thermo Fischer Scientific, Roskilde, Denmark) at concentrations of 1 μg/ml and 2 μg/ml, respectively, in 0.5 M sodium bicarbonate buffer pH 9.5, overnight at 4° C. Plates were then blocked with 5% BSA for one hour at 37° C. Soluble APRIL variants in the form of tissue culture conditioned medium were then added to the plate for two hours at 37° C. Following APRIL binding, plates were washed three times with PBS, 0.05% TWEEN®20. Bound APRIL was detected with 1 μg/ml of HRP-coupled anti-FLAG M2 and visualized with 2,2′-azino-bis(3-ethylbenzothiazoline-6-sulphonic acid (ABTS) (Sigma-Aldrich). The absorbance was read at 405 nm using a UV-VIS microplate reader (BioRad, Veenendaal, The Netherlands).

Test [4] concerns the target B15. Kind of test: receptor-binding ELISA, mouse TACI-Fc coated, dilution series of conditioned medium, anti-FLAG-HRP, OD 405 nm [TACI selective, Ms TACI-Fc coated]. The procedure:
as §3

The target in test [5] is B15. Kind of test: receptor-binding ELISA, mouse TACI-Fc coated [TACI selective, Ms TACI-Fc coated]. The procedure: as §3
(In an ELISA, binding on a coated surface is turned into a signal by an enzyme label.)

Test [6] addresses B2. Kind of test: receptor-binding ELISA, mouse BCMA-Fc coated, dilution series of conditioned medium, anti-FLAG-HRP, OD 405 nm [BCMA selective, Ms BCMA-Fc coated]. The procedure: as §3

No end group written: not given here.

For the molecule B1, in test [1], the equilibrium dissociation constant (Kd) was determined as 3.9 nM, the koff was found to be 0.00041 s⁻¹ and the on-rate (kon) was 110000 M⁻¹ s⁻¹.
In the case of B2, in test [2], the dissociation constant (Kd) turned out to be 0.14 nM, the koff stood at 0.00013 s⁻¹ and the on-rate (kon) came out at 890000 M⁻¹ s⁻¹.

B3: D132A (ligand)
soluble APRIL monomer: AVLTQKQKKQHSVLHLVPINATSKDDSAVTEVMWQPALRRGRGLQAQGYGVRIQDAGVYLLYSQVLFQDVTFTMGQVVSREGQGRQETLFRCIRSMPSHPDRAYNSCYSAGVFHLHQGDILSVIIPRARAKLNLSPHGTFLGFVKL
notes: FLAG-tagged soluble variant used as 293T conditioned medium; predicted TACI-selective; member of group m13; also called APRIL-D132A
In the case of B3, the binding result in test [3] and in test [4] was “binds” throughout.

B4: R233A (ligand)
soluble APRIL monomer: AVLTQKQKKQHSVLHLVPINATSKDDSDVTEVMWQPALRRGRGLQAQGYGVRIQDAGVYLLYSQVLFQDVTFTMGQVVSREGQGRQETLFRCIRSMPSHPDRAYNSCYSAGVFHLHQGDILSVIIPRAAAKLNLSPHGTFLGFVKL
notes: FLAG-tagged soluble variant used as 293T conditioned medium; predicted TACI-selective; member of group m13; also called APRIL-R233A
B4: the binding result in test [3] and in test [4] was “binds” throughout.

B5: T175L (ligand)
soluble APRIL monomer: AVLTQKQKKQHSVLHLVPINATSKDDSDVTEVMWQPALRRGRGLQAQGYGVRIQDAGVYLLYSQVLFQDVLFTMGQVVSREGQGRQETLFRCIRSMPSHPDRAYNSCYSAGVFHLHQGDILSVIIPRARAKLNLSPHGTFLGFVKL
notes: FLAG-tagged soluble variant used as 293T conditioned medium; predicted TACI-selective; member of group m13; also called APRIL-T175L
As for B5, the binding result is “no binding” in test [5] and “binds” in test [3].

B6: APRIL-D132Y (FLAG-tagged soluble variant) (ligand)
chain: AVLTQKQKKQHSVLHLVPINATSKDDSYVTEVMWQPALRRGRGLQAQGYGVRIQDAGVYLLYSQVLFQDVTFTMGQVVSREGQGRQETLFRCIRSMPSHPDRAYNSCYSAGVFHLHQGDILSVIIPRARAKLNLSPHGTFLGFVKL
notes: Used as conditioned medium; not shown: FLAG tag
As to B6, the binding result in test [3] is “binds”.

B7: T175Y (ligand)
soluble APRIL monomer: AVLTQKQKKQHSVLHLVPINATSKDDSDVTEVMWQPALRRGRGLQAQGYGVRIQDAGVYLLYSQVLFQDVYFTMGQVVSREGQGRQETLFRCIRSMPSHPDRAYNSCYSAGVFHLHQGDILSVIIPRARAKLNLSPHGTFLGFVKL
notes: FLAG-tagged soluble variant used as 293T conditioned medium; predicted TACI-selective; member of group m13; also called APRIL-T175Y
Consider B7, for which the binding result is “no binding” in test [5] and “binds” in test [3].

B8: T175F (ligand)
soluble APRIL monomer: AVLTQKQKKQHSVLHLVPINATSKDDSDVTEVMWQPALRRGRGLQAQGYGVRIQDAGVYLLYSQVLFQDVFFTMGQVVSREGQGRQETLFRCIRSMPSHPDRAYNSCYSAGVFHLHQGDILSVIIPRARAKLNLSPHGTFLGFVKL
notes: FLAG-tagged soluble variant used as 293T conditioned medium; predicted TACI-selective; member of group m13; also called APRIL-T175F
For the molecule B8, the binding result in test [5] is on record as “no binding”; in test [3], “binds”.

B9: APRIL-T175D (FLAG-tagged soluble variant) (ligand)
chain: AVLTQKQKKQHSVLHLVPINATSKDDSDVTEVMWQPALRRGRGLQAQGYGVRIQDAGVYLLYSQVLFQDVDFTMGQVVSREGQGRQETLFRCIRSMPSHPDRAYNSCYSAGVFHLHQGDILSVIIPRARAKLNLSPHGTFLGFVKL
notes: as for B6
Regarding B9, the binding result in test [6] is recorded as “binds”.

B10: APRIL-D205Y (FLAG-tagged soluble variant) (ligand)
chain: AVLTQKQKKQHSVLHLVPINATSKDDSDVTEVMWQPALRRGRGLQAQGYGVRIQDAGVYLLYSQVLFQDVTFTMGQVVSREGQGRQETLFRCIRSMPSHPYRAYNSCYSAGVFHLHQGDILSVIIPRARAKLNLSPHGTFLGFVKL
notes: as for B6
For B10, the binding result in test [6] was “binds”.

B11: APRIL-D132F (FLAG-tagged soluble variant) (ligand)
chain: AVLTQKQKKQHSVLHLVPINATSKDDSFVTEVMWQPALRRGRGLQAQGYGVRIQDAGVYLLYSQVLFQDVTFTMGQVVSREGQGRQETLFRCIRSMPSHPDRAYNSCYSAGVFHLHQGDILSVIIPRARAKLNLSPHGTFLGFVKL
notes: as for B6
Consider B11, for which, in test [3], the binding result was “binds”.

B12: R233E (ligand)
soluble APRIL monomer: AVLTQKQKKQHSVLHLVPINATSKDDSDVTEVMWQPALRRGRGLQAQGYGVRIQDAGVYLLYSQVLFQDVTFTMGQVVSREGQGRQETLFRCIRSMPSHPDRAYNSCYSAGVFHLHQGDILSVIIPRAEAKLNLSPHGTFLGFVKL
notes: FLAG-tagged soluble variant used as 293T conditioned medium; predicted TACI-selective; member of group m13; also called APRIL-R233E
Regarding B12, the binding result in test [3] and in test [4] was “binds” in each case.

B13: human BCMA-Fc (Fc fusion, UniProt Q02223 2-54, looked up)
chain: LQMAGQCSQNEYFDSLLHACIPCQLRCSSNTPPLTCQRYCNASVTNSVKGTNA
modifications: cysteine pairing not given here; also: fused to human IgG1 Fc, construct limits, linker and order not given here
notes: Generated in-house; not shown: Fc portion of human IgG1
Regarding B13, in test [2], the dissociation constant Kd was 0.38 nM, the off-rate constant (koff) is 0.0002 s⁻¹ and the on-rate constant (kon) was 530000 M⁻¹ s⁻¹.

B14: APRIL-H241T (FLAG-tagged soluble variant) (ligand)
chain: AVLTQKQKKQHSVLHLVPINATSKDDSDVTEVMWQPALRRGRGLQAQGYGVRIQDAGVYLLYSQVLFQDVTFTMGQVVSREGQGRQETLFRCIRSMPSHPDRAYNSCYSAGVFHLHQGDILSVIIPRARAKLNLSPTGTFLGFVKL
notes: not shown: FLAG tag
Take B14: the binding result in test [3] and in test [4] was “binds” throughout.
As to B15, in test [2], the equilibrium dissociation constant (Kd) is 4.4 nM, the off-rate (koff) was 0.00075 s⁻¹ and the association rate constant (kon) is 170000 M⁻¹ s⁻¹.

A word on the Kd: it is a measure of binding affinity in units of concentration. Broadly, the koff is a measure of how fast the partners let go of each other. As usually defined, the kon is a measure of how fast the partners come together.
